PMC8367818, “The Taxus genome provides insights into paclitaxel biosynthesis” (Nature Plants, 2021)

B1: TS1 (Taxus chinensis) (protein)
chain: MSSSTGTSKVVSETSSTIVDDIPRLSANYHGDLWHHNVIQTLETPFRESSTYQERADELVVKIKDMFNALGDGDISPSAYDTAWVARVATISSDGSEKPRFPQALNWVLNNQLQDGSWGIESHFSLCDRLLNTINSVIALSVWKTGHSQVEQGTEFIAENLRLLNEEDELSPDFEIIFPALLQKAKSLGINLPYDLPFIKYLSTTREARLTDVSAAADNIPANMLNALEGLEEVIDWKKIMRFQSKDGSFLSSPASTACVLMNTGDEKCFTFLNNLLDKFGGCVPCMYSIDLLERLSLVDNIEHLGIGRHFKQEIKVALDYVYRHWSERGIGWGRDSLVPDLNTTALGLRTLRTHGYDVSSDVLNNFKDENGRFFSSAGQTHVELRSVVNLFRASDLAFPDEGAMDDARKFAEPYLRDALATKISTNTKLFKEIEYVVEYPWHMSIPRLEARSYIDSYDDDYVWERKTLYRMPSLSNSKCLELAKLDFNIVQSLHQEELKLLTRWWKESGMADINFTRHRVAEVYFSSATFEPEYSATRIAFTKIGCLQVLFDDMADIFATLDELKSFTEGVKRWDTSLLHEIPECMQTCFKVWFKLMEEVNNDVVKVQGRDMLAHIRKPWELYFNCYVQEREWLDAGYIPTFEEYLKTYAISVGLGPCTLQPILLMGELVKDDVVEKVHYPSNMFELVSLSWRLTNDTKTYQAEKARGQQASGIACYMKDNPGATEEDAIKHICRVVDRALKEASFEYFKPSNDIPMGCKSFIFNLRLCVQIFYKFIDGYGIANEEIKDYIRKVYIDPIQV
notes: 60-residue N-terminal (plastid transit) truncation, His-tagged, pET28b, E. coli, purified
B2: TS2 (Taxus chinensis) (protein)
chain: SGSPTKLATENANAVAESNLIPRLSANYHGDLWHHGVIQTLQTPYQESSSYQERAEELIVKIKDMFKAVEEGAISPSAYDTAWVARVPDGSEKPRFPQALNWLLHNQLQDGSWGLESHFMLSDRLLSTLNSVISLLVWKTGQQQVEQGTLFITENLKLLEGEDELPPDFEIIFPALLQKAKALGMSLPDHDLPFIKSLSVAREARLASYTDNNIPASMLNALEGLEEVIDWDKIMRFQMPCLYSIDLLERLSLVDNIEHLGIGRHFKQEIKVALDYVYRYWSERGIGLGRDSLIPDLNTTALGLRTLRAHGYNVSSEVLNNFKDENGRFFSSLGQTHVELRSMVNLLRASDLAFPDEPLMDDAKIFAEAYLRDALATRISTNTKLFKEIDYAVEYPWHMSIPRLEARSYIDVYDDDYTWQNKTLYRMSNLSNAYCLELAKLDFNIVQSLHQEELKLLTRWWKESGMADINFTRHRVAEVYFSSATFEPEYSSTRIAFTKIGCLQVLFDDMADIFATLDELRDFTEGVKRWDTSLIHKLPDCMQTCFRVWFNLMEEVNNDVSNVQGRDMLNHIRKPWELYFNCYVQEREWLDAGYIPTLEEYLKTYSISVGLGPCTLQPILLMGDIVKDDVVEKVHYPSNLFELVSLSWRLTNDTKTYQAEKARGQQASGIACYMKDNPGSTEEDAIKYICGVVDRALKEACFEYFKPADDVPMSCKSFIFNLRLCVQIFYKFIDGYGIANEEIKDYIRKVYIEPIQV
notes: as for B1

Substrate: CC(C)=CCC/C(C)=C/CC/C(C)=C/CC/C(C)=C/COP(=O)(O)OP(=O)(O)O
Assay: purified protein
Format: biochemical, Taxus chinensis
Conditions: 1 mM MgCl2, 25 mM HEPES pH 8.5, 10% glycerol, 5 mM DTT, 32 °C, 30 min, GGPP spiked with [1-3H]-GGPP

Row | Protein | Km [µM] | kcat [s⁻¹]
1 | B1 | 5.5 ± 1.6 | 1705
2 | B2 | 8.6 ± 1.5 | 3280
